Data set [1] addresses T1, RPA heterotrimer (p70/p34/p14, full-length) (Homo sapiens, UniProt P27694;P15927;P35244 P27694:1-616,P15927:1-270,P35244:1-121). Nature of the data set: EMSA; 12.5 nM DNA; binding inhibited by MCI13E, MCI13F and CheSS19. Conditions: tags: untagged; label: 5'-32P. A general note: Mobility shift assays separate free from complexed probe on a gel.
Another data set addresses EcSSB (Escherichia coli, UniProt P0AGE0 P0AGE0:2-178). Put plainly: EMSA; 25 nM DNA, 3.3 nM SSB tetramer, 20 mM HEPES pH 7.5, 100 mM NaCl; unaffected by CheSS19, MCI13E, MCI13F. Conditions: tags: Enzymatics, Beverly MA; chain copies: 4 stated; label: 5'-32P. As for the experimental part: Referring now to FIG. 6B. CheSS19 titration in EcSSB DNA-binding reactions. CheSS19 (0, 25, 50, 100, and 200 μM) was pre-incubated with EcSSB and binding reactions were carried out. Referring now to FIG. 6C. Titration of MCI13E and MCI13F in EcSSB DNA-binding reactions. Concentrations of MCI13E/F used were: 0, 25, 50, 100, and 200 μM. In all panels, the 'Free' ssDNA is indicated with an arrow and the 'Bound' ssDNA is indicated by brackets. All reactions were performed in the same order and manner as the RPA binding reactions. EcSSB binding was unaffected by CheSS19 and the MCI13E and MCI13F compounds (FIGS. 6A and B).
EMSAs were performed similarly to those for the RPA constructs, with the following exceptions. Reactions contained 25 nM of 5'-[^32P]-labeled 3Pc3 ssDNA and 3.3 nM (assuming homotetramer formation) SSB protein (Enzymatics, Beverly, Mass.). Reactions (20 μL) were carried out in 20 mM HEPES, pH 7.5, 1 mM DTT, 0.01% NP-40, 100 mM NaCl, and resolved by 6% native polyacrylamide gel electrophoresis at 25 mA for 2 hours. Gels were dried and quantified via phosphorimager analysis and ImageQuant software (Molecular Dynamics).

The target of data set [2] is T2, RPA p70 DBD-A/B (Homo sapiens, UniProt P27694 P27694:181-422).
T2 chain: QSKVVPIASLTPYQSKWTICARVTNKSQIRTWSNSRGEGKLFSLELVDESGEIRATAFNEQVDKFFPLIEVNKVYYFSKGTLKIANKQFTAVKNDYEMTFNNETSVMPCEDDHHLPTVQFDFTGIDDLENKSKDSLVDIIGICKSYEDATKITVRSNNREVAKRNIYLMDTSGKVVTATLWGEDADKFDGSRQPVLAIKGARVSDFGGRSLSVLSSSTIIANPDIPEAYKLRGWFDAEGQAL
Nature of the data set: EMSA; not inhibited by MCI13E or MCI13F. The note with it: tags: His (pET15b, nickel-NTA purified); label: 5'-32P.

The target of data set [3] is T1, RPA heterotrimer (p70/p34/p14, …). Put plainly: EMSA; inhibited irreversibly by MCI13E. Conditions: tags: untagged; label: 5'-32P. Here is the method:
Considering the differential inhibition observed between the anhydride and halo esters with respect to specificity, experiments were carried out to determine if the isoborneol halo-esters inhibited full-length RPA in an irreversible fashion. Full-length RPA was mixed with MCI13E or vehicle control and the reaction mixtures were then dialyzed overnight. Referring now to FIG. 5. Gel showing irreversible inactivation of full-length heterotrimeric RPA by MCI13E. Incubation of RPA with MCI13E, dialysis and recovery was performed as described for FIG. 3. DNA binding activity of the resulting protein was assessed by EMSA using a 5'-[^32P]-ss 34-base DNA as described in "Methods". Lanes 1-4 pre-dialysis, lanes 5 and 6 post dialysis. […] In fact, the degree of inhibition was similar to that observed for the MCI13E treated RPA before dialysis (FIG. 5 lanes 3 and 4). […] This activity is consistent with MCI13E and F and their reaction with RPA serving as a pharmacodynamic marker of RPA inhibition or as a biomarker for RPA expression and activity.

The target of data set [4] is T2, RPA p70 DBD-A/B. Nature of the data set: FP; 20 nM DNA; 10 mM HEPES pH 7.2, 100 mM NaCl; inhibited irreversibly by CheSS19. Conditions: tags: His (pET15b, nickel-NTA purified); label: fluorescein (F). Here is the method: In an experiment reported herein, DBD-A/B was incubated with CheSS 19 and then the reaction mix dialyzed overnight to remove dissociable inhibitor.
Referring now to FIG. 3D. Bar graph showing results of fluorescence polarization analysis of CheSS19 inactivated RPA DBD-A/B. Referring now to FIG. 3D, RPA DBD-A/B was pre-incubated with vehicle (1% DMSO) or CheSS19 (1pmol in 1% DMSO) for 30 minutes at 37° C. Following incubation, the reaction mix was dialyzed versus H1 buffer overnight at 4° C. The protein was recovered and DNA binding activity measured by FP analysis of binding to an F-dT12 substrate was performed as described in "Methods". Bar 1, DNA control, Bar 2, control vehicle treated DBD-A/B, Bar 3, Chess19 treated DBD-A/B. The data represent the mean and range of two independent experiments.
Fluorescence polarization experiments were preformed as previously described (21). SMIs were diluted in H1 buffer (10 mM HEPES, pH 7.2, 1 mM DTT, 0.01% NP-40 and 100 mM NaCl) and the final DMSO concentration was kept below 1%.

T1 sequence (P27694 whole entry, chain 1 of 3): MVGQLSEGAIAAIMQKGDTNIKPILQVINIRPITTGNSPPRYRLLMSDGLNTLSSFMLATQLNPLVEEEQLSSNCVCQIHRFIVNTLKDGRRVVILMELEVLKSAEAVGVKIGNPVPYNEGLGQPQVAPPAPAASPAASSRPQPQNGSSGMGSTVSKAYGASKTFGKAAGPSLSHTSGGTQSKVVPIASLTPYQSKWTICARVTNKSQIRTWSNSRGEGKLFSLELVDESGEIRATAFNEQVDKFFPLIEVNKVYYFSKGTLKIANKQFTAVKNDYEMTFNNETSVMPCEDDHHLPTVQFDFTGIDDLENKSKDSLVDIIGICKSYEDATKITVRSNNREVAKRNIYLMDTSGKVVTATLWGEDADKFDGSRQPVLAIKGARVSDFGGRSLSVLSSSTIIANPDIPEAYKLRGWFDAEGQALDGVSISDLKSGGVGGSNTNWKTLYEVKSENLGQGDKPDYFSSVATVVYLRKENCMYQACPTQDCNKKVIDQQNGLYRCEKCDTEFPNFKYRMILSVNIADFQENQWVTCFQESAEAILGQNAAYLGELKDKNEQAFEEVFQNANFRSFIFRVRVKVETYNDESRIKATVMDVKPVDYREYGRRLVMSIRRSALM
T1 sequence (P15927 whole entry, chain 2 of 3): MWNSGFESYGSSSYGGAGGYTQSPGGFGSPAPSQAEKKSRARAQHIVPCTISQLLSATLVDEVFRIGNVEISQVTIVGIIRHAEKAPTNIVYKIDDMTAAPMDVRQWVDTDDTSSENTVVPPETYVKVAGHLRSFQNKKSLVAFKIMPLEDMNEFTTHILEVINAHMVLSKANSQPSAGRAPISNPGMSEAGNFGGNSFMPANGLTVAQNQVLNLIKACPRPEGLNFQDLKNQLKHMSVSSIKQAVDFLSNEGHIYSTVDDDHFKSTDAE
T1 sequence (P35244 whole entry, chain 3 of 3): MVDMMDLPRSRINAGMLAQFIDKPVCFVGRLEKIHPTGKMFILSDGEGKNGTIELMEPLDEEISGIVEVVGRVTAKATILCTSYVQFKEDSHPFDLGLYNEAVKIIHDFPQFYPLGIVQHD
Sequence of EcSSB (P0AGE0 2-178, one chain of several): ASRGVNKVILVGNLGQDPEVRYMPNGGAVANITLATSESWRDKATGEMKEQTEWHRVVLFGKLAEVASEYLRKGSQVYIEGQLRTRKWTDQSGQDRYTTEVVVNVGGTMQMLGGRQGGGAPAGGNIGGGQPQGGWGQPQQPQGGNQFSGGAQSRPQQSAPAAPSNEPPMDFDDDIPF

In the case of GGAGACCGAAGAGGAAAAGAAGGAGAGAGG (ssDNA) [3Pc3 30-mer], the binding result (in data set [1]; with EcSSB) was “binds” in each case.

With TTTTTTTTTTTT (ssDNA) [dT12], the binding result with RPA p70 DBD-A/B [2] is recorded as “binds”.

For the molecule CTAGAAAGGGGGAAGAAAGGGAAGAGGCCAGAGA (ssDNA) [34-mer], the binding result in data set [3] is reported as “binds”.

Turning to TTTTTTTTTTTT (ssDNA) [F-dT12], in the data set with RPA p70 DBD-A/B [4], the binding result is “binds”.

The values are drawn from US8980955, “Small molecule inhibitors of replication protein A that also act synergistically with cisplatin” (Indiana University Research and Technology).
